{"source": "patent US8409836B2", "about": "“Treatment of cellulosic material and enzymes useful therein” (Roal Oy, priority 2005, dated 2013)", "molecules": {"B1": {"name": "At EG_40_like: endoglucanase of Acremonium thermophilum ALKO4245, gene At cel45B, amino acid SEQ ID NO: 14 (protein)", "chain": "MRLPLPTLLALLPYYLEVSAQGASGTGTTTRYWDCCKPSCAWPLKGNSPSPVQTCDKNDRPLNDGGNTKSGCDNGGGAFMCSSQSPWAVNETTSYGWAAVRIAGSTESAWCCACYELTFTSGPVSGKKLIVQATNTGGDLGSNHFDLAIPGGGVGQSNACTNQYGAPPNGWGDRYGGVHSRSDCDSFPAALKAGCYWRFDWFQGADNPSVSFKQVACPAAITAKSGCTRQNDAINETPTGPSTVPTYTASG"}, "B2": {"name": "Ct βG_76: beta-glucosidase of Chaetomium thermophilum ALKO4261, gene Ct cel3A, amino acid SEQ ID NO: 26 (protein)", "chain": "MALHAFLLLASALLARGALSQPDNVRRAAPTGTAAWDAAHSQAAAAVSRLSQQDKINIVTGVGWGKGPCVGNTNPVYSINYPQLCLQDGPLGIRSATSVTAFTPGIQAASTWDVELIRQRGVYLGQEARGTGVHVLLGPVAGALGKIPHGGRNWEAFGSDPYLAGIAMSETIEGIQSEGVQACAKHYIANEQELNRETMSSNVDDRTMHELYLWPFADAVHSNVASVMCSYNKLNGTWLCENDRAQNQLLKRELGFRGYIVSDWNAQHTTVGSANSGMDMTMPGSDFNGWNVLWGPQLNNAVNSGQVSQSRLNDMVQRILAAWYLLGQNSGYPSINLRANVQANHKENVRAVARDGIVLLKNDGILPLQRPNKIALVGSAAVVNPRGMNACVDRGCNEGALGMGWGSGTVEYPYFVAPYDALRERAQRDGTQISLHASDNTNGVNNAVQGADAAFVFITADSGEGYITVEGHAGDRNHLDPWHNGNQLVQAVAQANKNVIVVVHSVGPVILETILNTPGVRAVVWAGLPSQESGNALVDVLYGLVSPSGKLVYTIAKSPSDYPTSIVRGDDNFREGLFIDYRHFDNARIEPRFEFGFGLSYTNFSYSNLGISSSATAGPATGPTVPGGPADLWNYVATVTATVTNTGGVEGAEVAQLYISLPSSAPASPPKQLRGFVKLKLAPGQSGTATFRLRKRDLAYWDVGRQNWVVPSGRFGVLVGASSRDIRLQGEIVV"}, "B3": {"name": "At EG_40: endoglucanase of Acremonium thermophilum ALKO4245, gene At cel45A, amino acid SEQ ID NO: 12 (protein)", "chain": "MRSSPFLRAALAAALPLSAHALDGKSTRYWDCCKPSCGWPGKASVNQPVFSCSADWQRISDFNAKSGCDGGSAYSCADQTPWAVNDNFSYGFAATAIAGGSESSWCCACYALTFNSGPVAGKTMVVQSTSTGGDLGSNQFDLAIPGGGVGIFNGCASQFGGLPGAQYGGISDRSQCSSFPAPLQPGCQWRFDWFQNADNPTFTFQRVQCPSELTSRTGCKRDDDASYPVFNPPSGGSPSTTSTTTSSPSGPTGNPPGGGGCTAQKWAQCGGTGFTGCTTCVSGTTCQVQNQWYSQCL"}}, "format_in_all_cases": "biochemical", "key": {"[1]": {"test": "pH optimum of heterologously produced endoglucanases", "settings": "McIlvaine's buffer; for pH optimum: pH range 4.0-8.0, CMC, 10 min, 50° C.", "experimental": "(§1) The pH optimum of the heterologously produced endoglucanases was determined in the universal McIlvaine's buffer within a pH range of 4.0-8.0 using carboxymethylcellulose as substrate. As shown in FIG. 6 A the broadest pH range (4.5-6.0) is that of the Acremonium EG—40/Cel45A protein, the optimum being at pH 5.5. The pH optima for the other heterologously produced endoglucanases are pH 5.0-5.5 and 6.0 for Acremonium EG—40_like/Cel45B and Thermoascus EG—28/Cel5A, respectively. The optimal temperature for enzymatic activity of these endoglucanases was determined at the temperature range of 50-85° C. as described above. The highest activity of the enzymes was determined to be at 75° C., 60° C., and 75° C. for the Acremonium EG—40/Cel45A, EG—40 like/Cel45B, and Thermoascus EG—28/Cel5A, respectively (FIG. 6 B)."}, "[2]": {"test": "Temperature optimum of heterologously produced endoglucanases", "settings": "temperature range 50-85° C., CMC", "experimental": "as §1"}, "[3]": {"test": "Hydrolysis with endoglucanase preparations, spruce", "settings": "48 h, 45° C., pH 5.0", "experimental": "(§2) The preparations containing the endoglucanases were compared in hydrolysis studies mixed with the purified CBH/Cel7 and CBH/Cel6 enzymes on several pre-treated substrates. Culture filtrates of T. reesei, containing different cloned endoglucanase enzymes were obtained as described in Example 19. The enzymes were enriched by removing thermolabile proteins from the mixtures by a heat treatment (60° C., 2 h, pH 5) and the supernatant was used for the hydrolysis studies. In addition, pure T. reesei cellulases (purified as described by Suurnäkki et al., 2000) were used in the enzyme mixtures. The endoglucanases used in the experiment were:\nWashed steam pre-treated spruce fibre (impregnation with 3% SO2 for 20 min, followed by steam pre-treatment at 215° C. for 5 min), dry matter 25.9% (SPRUCE).\n(§3) The endoglucanases to be studied (dosage 840 nkat/g dry matter, based on endoglucanase activity against HEC according to IUPAC, 1987) were used either with cellobiohydrolases of T. reesei (CBHI/Cel7A, 8.1 mg/g d.m. and CBHII/Cel6A, 2.0 mg/g d.m.) or with Thermoascus aurantiacus Cel7A with genetically attached CBD of T. reesei (10.1 mg/g d.m.). Purified (Suurnäkki et al., 2000) EGI (Cel7B) and EGII (Cel5A) of T. reesei were also included in the experiments for comparison. All mixtures were supplemented with additional β-glucosidase from Novozym 188 (to make the total β-glucosidase dosage 560 nkat/g d.w., the relatively high dosage was used to compensate the differences in the background activities of the different EG preparations). Triplicate tubes were incubated in mixing at 45° C. for 48 h and reference samples with inactivated enzymes and corresponding substrates were prepared. The release of hydrolysis products was measured as reducing sugars with DNS method using glucose as standard (Table 31)."}, "[4]": {"test": "Hydrolysis with endoglucanase preparations, corn stover", "settings": "48 h, 45° C., pH 5.0", "experimental": "as §2\nSteam exploded corn stover fibre (steam pre-treatment at 210° C. for 5 min), dry matter 31.0% (SECS).\nas §3"}, "[5]": {"test": "pH optimum of heterologously produced β-glucosidases", "settings": "McIlvaine's buffer, pH range 3.0-8.0, 4-nitrophenyl-β-D-glucopyranoside", "experimental": "(§4) The pH optimum of the heterologously produced β-glucosidases was determined in the universal McIlvaine's buffer within a pH range of 3.0-8.0 using 4-nitrophenyl-β-D-glucopyranoside as substrate. The pH optima for the Acremonium βG—101, Chaetomium βG—76, and Thermoascus βG—81 are pH 4.5, 5.5, and 4.5, respectively (FIG. 7 A). The optimal temperature for enzymatic activity of these β-glucosidases was determined at the temperature range of 50-85° C. as described above. The highest activity of the enzymes was determined to be at 70° C., 65° C., and 75° C. for the Acremonium βG—101/Cel3A, Chaetomium βG—76/Cel3A, and Thermoascus βG—81/Cel3A, respectively (FIG. 7 B)."}, "[6]": {"test": "Temperature optimum of heterologously produced β-glucosidases", "settings": "temperature range 50-85° C., 60 min", "experimental": "as §4"}, "[7]": {"test": "Endoglucanase activity on carboxymethyl cellulose", "settings": "purified endoglucanase, 50° C., procedure of IUPAC 1987", "experimental": "The specific activity of the preparations was determined using 4-methylumbelliferyl-β-D-lactoside (MUL), 4-methylumbelliferyl-β-D-cellobioside (MUG2) or 4-methylumbelliferyl-β-D-cellotrioside (MUG3) as substrate (van Tilbeurgh et al., 1988) in 0.05 M sodium citrate buffer pH 5 at 50° C. for 10 min. Endoglucanase and xylanase activities were determined by standard procedures (according to IUPAC, 1987) using carboxymethyl cellulose (CMC) and birch glucuronoxylan (Bailey et al., 1992) as substrates. Specific activity against Avicel was calculated on the basis of reducing sugars formed in a 24 h reaction at 50° C., pH 5.0, with 1% substrate and 0.25 μM enzyme dosage. The protein content of the purified enzyme preparations was measured according to Lowry et al., 1951. To characterize the end products of hydrolysis, soluble sugars liberated in 24 h hydrolysis experiment, as described above, were analysed by HPLC (Dionex). Purified cellobiohydrolase I (CBHI/Cel7A) of Trichoderma reesei was used as a reference.\n(§5) Acremonium thermophilum ALKO4245 was grown as described in Example 1. The culture supernatant was incubated at 70° C. for 24 hours after which it was concentrated by ultrafiltration. The pure endoglucanase was obtained by sequential purification with hydrophobic interaction and cation exchange chromatography followed by gel filtration. The endoglucanase activity of the fractions collected during purification was determined using carboxymethyl cellulose (CMC) as substrate (procedure of IUPAC 1987). Protein content was measured by BioRad Assay Kit (Bio-Rad Laboratories) using bovine serum albumine as standard.\nas §5, with “Thermoascus aurantiacus ALKO4242 was” for “Acremonium thermophilum ALKO4245 was”, “1.” for “1. The culture supernatant was incubated at 70° C. for 24 hours after which it was concentrated by ultrafiltration.”, “and anion” for “and cation”"}, "[8]": {"settings": "with CBHI and CBHII of T. reesei"}, "[9]": {"settings": "with T. aurantiacus Cel7A + Tr CBD"}}, "data": [{"molecule": "B1", "values": [{"measurement": "pH optimum", "setting": "[1]", "result": "5.0-5.5"}, {"measurement": "Temperature of highest activity", "setting": "[2]", "result": 60, "unit": "°C"}, {"measurement": "Hydrolysis products as reducing sugars, SPRUCE", "setting": "[3]; [8]", "result": 4.5, "unit": "mg/mL"}, {"measurement": "Hydrolysis products as reducing sugars, SECS", "setting": "[4]; [8]", "result": 4.8, "unit": "mg/mL"}]}, {"molecule": "B2", "values": [{"measurement": "pH optimum", "setting": "[5]", "result": 5.5}, {"measurement": "Temperature of highest activity", "setting": "[6]", "result": 65, "unit": "°C"}]}, {"molecule": "B3", "values": [{"measurement": "Specific activity on CMC", "setting": "[7]", "result": 450, "unit": "nkat/mg"}, {"measurement": "pH range (broadest)", "setting": "[1]; CMC", "result": "4.5-6.0"}, {"measurement": "pH optimum", "setting": "[1]", "result": 5.5}, {"measurement": "Temperature of highest activity", "setting": "[2]", "result": 75, "unit": "°C"}, {"measurement": "Hydrolysis products as reducing sugars, SPRUCE", "setting": "[3]; [8]", "result": 4.9, "unit": "mg/mL"}, {"measurement": "Hydrolysis products as reducing sugars, SPRUCE", "setting": "[3]; [9]", "result": 4.8, "unit": "mg/mL"}, {"measurement": "Hydrolysis products as reducing sugars, SECS", "setting": "[4]; [8]", "result": 4.3, "unit": "mg/mL"}, {"measurement": "Hydrolysis products as reducing sugars, SECS", "setting": "[4]; [9]", "result": 4.0, "unit": "mg/mL"}]}]}
